In patent publication US20180187173:

Tests used:
[1] = system: ZFN SBS 33488 (engineered); assay: cell_activity; settings: pair with 33501, K562 cells; 37.5% in human CD34+ cells
[2] = system: ZFN pair 33488/33501 (engineered); assay: cell_activity; settings: K562 cells

GGAGTCAGGTGCACCATGGTGTCTGTTT (double strand) [HBB left ZFN half-site]
activity [1]: 66.6 % indels

HBE1 paralog site
activity ([2]; 0.000% in CD34+ cells): 0 % indels

HBG1 paralog site
activity ([2]; 0.000% in CD34+ cells): 0.006 % indels

HBG2 paralog site
activity ([2]; 0.005% in CD34+ cells): 0.013 % indels

HBBP1 paralog site
activity ([2]; 0.005% in CD34+ cells): 0.024 % indels

CACCATGGTGCATCTGACTCCTGAGGAGAAGACTGCTGTCA (double strand) [HBD paralog site]
activity ([2]; off-target paralog, 28.6% in CD34+ cells): 34 % indels
